The target of this experiment is CA1.CD2 PEGylated with P40 (rat). Nature of the experiment: Western blot; PEGylated (P40) against unmodified CA1.CD2. For orientation: In western blotting, separated proteins are transferred to a membrane and probed.

Here are results for one substance from patent US20240082434A1.

antibody OX34 gave a decrease of binding against unPEGylated CA1.CD2 of 50%.
